Experimental data: the supplement of paper PMC10065799, “High-throughput profiling of sequence recognition by tyrosine kinases and SH2 domains using bacterial peptide display” (eLife, 2023)

Assays:
[1] = biological target: Grb2 SH2 (UniProt P62993); test: SH2 binding enrichment of the phosphorylated peptide, bacterial display (enrichment ratio); higher = better substrate or ligand; peptides without Tyr show the background
[2] = biological target: c-Src SH2; test: as above
[3] = biological target: SHP2-C SH2; test: as above
[4] = biological target: EPHB2 (UniProt P29323); test: phosphorylation enrichment, bacterial display (enrichment ratio); higher = better substrate or ligand; peptides without Tyr show the background
Chain of EPHB2 (P29323 whole entry, looked up): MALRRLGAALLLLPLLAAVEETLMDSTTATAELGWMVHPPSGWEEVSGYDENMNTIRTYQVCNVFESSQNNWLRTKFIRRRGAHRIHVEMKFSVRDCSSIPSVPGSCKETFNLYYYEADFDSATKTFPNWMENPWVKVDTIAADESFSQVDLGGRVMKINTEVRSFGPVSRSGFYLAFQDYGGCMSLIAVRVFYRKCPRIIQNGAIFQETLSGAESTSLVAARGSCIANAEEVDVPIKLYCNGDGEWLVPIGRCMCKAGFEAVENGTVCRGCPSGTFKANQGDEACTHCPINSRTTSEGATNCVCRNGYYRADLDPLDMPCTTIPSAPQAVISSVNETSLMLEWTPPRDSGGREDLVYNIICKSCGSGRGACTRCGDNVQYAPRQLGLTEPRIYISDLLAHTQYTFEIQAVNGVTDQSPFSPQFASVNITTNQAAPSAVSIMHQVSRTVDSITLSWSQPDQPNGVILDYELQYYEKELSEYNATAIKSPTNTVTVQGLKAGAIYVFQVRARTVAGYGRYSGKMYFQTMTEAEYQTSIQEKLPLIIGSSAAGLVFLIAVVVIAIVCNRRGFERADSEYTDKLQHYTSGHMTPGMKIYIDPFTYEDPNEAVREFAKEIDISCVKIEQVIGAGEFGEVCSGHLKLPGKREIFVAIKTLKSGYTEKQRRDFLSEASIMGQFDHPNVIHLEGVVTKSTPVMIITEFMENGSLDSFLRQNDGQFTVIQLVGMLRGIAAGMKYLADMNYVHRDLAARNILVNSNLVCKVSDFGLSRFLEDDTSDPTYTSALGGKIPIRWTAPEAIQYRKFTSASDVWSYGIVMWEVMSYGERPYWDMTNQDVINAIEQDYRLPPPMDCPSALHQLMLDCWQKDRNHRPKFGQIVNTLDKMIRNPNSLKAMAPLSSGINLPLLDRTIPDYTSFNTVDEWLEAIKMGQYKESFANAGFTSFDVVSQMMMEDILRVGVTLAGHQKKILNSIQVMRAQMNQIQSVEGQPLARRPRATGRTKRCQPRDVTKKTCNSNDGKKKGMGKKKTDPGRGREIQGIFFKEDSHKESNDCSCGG

[5] = biological target: MERTK (UniProt Q12866); test: as above
Chain of MERTK (Q12866 whole entry, looked up): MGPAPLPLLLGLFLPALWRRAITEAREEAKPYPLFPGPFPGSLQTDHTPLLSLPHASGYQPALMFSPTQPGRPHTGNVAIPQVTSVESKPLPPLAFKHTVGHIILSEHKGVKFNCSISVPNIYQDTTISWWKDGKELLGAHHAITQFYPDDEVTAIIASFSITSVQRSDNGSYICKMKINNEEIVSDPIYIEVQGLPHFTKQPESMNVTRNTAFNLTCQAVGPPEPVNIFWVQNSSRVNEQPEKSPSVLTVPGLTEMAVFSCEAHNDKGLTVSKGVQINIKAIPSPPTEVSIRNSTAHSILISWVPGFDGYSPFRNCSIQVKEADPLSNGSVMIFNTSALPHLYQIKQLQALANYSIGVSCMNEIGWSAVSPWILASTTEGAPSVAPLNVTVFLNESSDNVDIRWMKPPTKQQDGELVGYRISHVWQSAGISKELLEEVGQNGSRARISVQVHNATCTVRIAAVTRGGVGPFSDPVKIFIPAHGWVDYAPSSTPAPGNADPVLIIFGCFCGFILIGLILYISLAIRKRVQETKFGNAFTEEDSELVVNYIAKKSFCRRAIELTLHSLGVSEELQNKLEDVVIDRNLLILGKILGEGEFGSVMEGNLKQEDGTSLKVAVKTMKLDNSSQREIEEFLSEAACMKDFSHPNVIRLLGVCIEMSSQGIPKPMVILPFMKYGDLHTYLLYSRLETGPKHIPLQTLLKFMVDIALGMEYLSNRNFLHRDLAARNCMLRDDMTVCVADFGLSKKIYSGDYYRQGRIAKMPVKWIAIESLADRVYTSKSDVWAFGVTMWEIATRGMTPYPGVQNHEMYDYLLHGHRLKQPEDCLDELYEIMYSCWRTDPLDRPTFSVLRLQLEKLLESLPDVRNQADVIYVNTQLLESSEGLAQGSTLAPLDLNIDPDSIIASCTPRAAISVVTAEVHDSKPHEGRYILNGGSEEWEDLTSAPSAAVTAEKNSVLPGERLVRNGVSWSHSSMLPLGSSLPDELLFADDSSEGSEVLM

[6] = biological target: Hck (UniProt P08631); test: as above
[7] = biological target: FGFR3 (UniProt P22607); test: as above
[8] = biological target: EPHB1 (UniProt P54762); test: as above
Chain of EPHB1 (P54762 whole entry, looked up): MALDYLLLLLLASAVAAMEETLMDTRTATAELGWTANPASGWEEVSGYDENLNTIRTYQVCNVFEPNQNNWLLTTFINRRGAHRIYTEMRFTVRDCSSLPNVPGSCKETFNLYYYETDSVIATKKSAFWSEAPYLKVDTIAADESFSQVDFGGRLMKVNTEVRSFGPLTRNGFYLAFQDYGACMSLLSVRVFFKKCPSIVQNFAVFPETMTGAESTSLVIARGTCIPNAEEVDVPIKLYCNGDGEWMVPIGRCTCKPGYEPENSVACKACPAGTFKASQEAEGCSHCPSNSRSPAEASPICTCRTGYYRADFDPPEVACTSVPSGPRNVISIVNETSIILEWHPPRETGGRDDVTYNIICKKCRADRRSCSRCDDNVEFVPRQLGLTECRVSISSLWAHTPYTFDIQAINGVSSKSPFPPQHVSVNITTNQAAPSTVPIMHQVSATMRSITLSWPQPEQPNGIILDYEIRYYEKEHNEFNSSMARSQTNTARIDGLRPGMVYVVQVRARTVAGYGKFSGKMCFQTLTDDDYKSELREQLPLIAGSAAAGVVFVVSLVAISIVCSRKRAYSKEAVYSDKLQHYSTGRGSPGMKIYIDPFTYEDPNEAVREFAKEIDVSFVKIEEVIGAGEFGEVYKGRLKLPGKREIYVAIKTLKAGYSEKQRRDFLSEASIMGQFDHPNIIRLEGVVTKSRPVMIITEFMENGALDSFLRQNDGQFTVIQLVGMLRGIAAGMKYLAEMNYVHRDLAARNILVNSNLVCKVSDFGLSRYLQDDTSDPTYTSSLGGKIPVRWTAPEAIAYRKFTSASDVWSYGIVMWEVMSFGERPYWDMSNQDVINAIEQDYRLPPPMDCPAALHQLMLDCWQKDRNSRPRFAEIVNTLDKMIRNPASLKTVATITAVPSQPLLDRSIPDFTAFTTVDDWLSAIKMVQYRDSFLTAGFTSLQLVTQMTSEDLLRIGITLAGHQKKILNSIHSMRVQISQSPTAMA

[9] = biological target: Fes (UniProt P07332); test: as above
Chain of Fes (P07332 whole entry, looked up): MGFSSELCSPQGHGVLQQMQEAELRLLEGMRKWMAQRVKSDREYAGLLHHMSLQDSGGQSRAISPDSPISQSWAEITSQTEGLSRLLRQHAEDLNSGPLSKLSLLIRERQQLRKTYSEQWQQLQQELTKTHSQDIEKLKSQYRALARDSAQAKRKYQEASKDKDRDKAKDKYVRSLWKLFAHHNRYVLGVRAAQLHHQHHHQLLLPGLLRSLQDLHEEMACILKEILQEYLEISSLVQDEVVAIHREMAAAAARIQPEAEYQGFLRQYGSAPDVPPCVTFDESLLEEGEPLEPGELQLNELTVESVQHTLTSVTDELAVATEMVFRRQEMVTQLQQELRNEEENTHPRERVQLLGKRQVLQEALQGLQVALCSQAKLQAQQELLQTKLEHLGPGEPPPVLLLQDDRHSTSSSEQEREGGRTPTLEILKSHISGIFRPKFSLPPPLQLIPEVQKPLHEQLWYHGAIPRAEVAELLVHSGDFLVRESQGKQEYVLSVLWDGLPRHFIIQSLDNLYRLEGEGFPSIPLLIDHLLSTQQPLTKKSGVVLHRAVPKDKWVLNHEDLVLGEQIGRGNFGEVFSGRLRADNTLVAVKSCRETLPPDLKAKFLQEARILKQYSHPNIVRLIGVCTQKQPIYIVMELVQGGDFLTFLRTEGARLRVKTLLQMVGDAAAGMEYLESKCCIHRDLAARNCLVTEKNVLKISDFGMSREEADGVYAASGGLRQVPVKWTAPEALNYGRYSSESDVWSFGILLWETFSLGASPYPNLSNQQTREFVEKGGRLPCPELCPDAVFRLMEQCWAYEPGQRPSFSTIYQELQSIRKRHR

[10] = tested on: AncSZ; test: as above
[11] = biological target: FGFR1 (UniProt P11362); test: as above
[12] = tested on: Fer (mouse); test: as above
[13] = tested on: c-Src; test: as above
[14] = tested on: c-Abl (mouse); test: as above
[15] = biological target: Jak2 (UniProt O60674); test: as above
Chain of Jak2 (O60674 whole entry, looked up): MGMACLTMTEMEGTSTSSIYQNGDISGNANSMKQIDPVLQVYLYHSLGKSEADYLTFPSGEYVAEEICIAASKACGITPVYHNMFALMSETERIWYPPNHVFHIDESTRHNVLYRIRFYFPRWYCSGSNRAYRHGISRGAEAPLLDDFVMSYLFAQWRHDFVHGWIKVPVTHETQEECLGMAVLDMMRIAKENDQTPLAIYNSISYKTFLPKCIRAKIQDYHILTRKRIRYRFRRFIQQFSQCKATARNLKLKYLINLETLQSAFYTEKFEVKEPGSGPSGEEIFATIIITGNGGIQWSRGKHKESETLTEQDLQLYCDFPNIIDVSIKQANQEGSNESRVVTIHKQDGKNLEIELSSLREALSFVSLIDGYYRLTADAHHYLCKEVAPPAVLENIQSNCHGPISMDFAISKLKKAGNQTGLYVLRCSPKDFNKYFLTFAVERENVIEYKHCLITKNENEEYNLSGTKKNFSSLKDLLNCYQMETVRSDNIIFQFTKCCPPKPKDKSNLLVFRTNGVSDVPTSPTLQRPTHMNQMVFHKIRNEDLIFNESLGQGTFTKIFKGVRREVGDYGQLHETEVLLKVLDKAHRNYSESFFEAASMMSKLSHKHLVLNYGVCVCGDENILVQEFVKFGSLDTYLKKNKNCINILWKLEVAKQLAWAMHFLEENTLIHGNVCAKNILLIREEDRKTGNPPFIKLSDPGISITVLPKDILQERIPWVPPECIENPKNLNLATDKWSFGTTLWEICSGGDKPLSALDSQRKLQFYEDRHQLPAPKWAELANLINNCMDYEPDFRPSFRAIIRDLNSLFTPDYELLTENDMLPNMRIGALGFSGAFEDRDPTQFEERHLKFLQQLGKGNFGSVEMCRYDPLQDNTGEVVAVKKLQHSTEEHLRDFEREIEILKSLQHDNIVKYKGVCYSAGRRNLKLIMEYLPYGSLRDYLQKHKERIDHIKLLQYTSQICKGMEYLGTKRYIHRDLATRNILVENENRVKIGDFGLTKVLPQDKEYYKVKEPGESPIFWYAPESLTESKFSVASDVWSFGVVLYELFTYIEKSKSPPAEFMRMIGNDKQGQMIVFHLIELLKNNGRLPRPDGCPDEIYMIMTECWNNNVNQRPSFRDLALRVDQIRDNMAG

[16] = biological target: Fyn (UniProt P06241); test: as above
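Wherever SH2 binding enrichment of the phosphorylated peptide, bacterial display is given: peptide library displayed on the E. coli surface as eCPX fusions, selected cells deep-sequenced, score is each peptide's frequency after selection divided by its frequency in the input.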
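Wherever phosphorylation enrichment, bacterial display is given: 11-residue human phosphosite peptides and single-mutation variants displayed on the E. coli surface, counted by deep sequencing, each peptide's frequency after selection divided by its frequency in the unselected input library; frequency after pTyr selection over input frequency; kinase dosed for 20-30% of maximal phosphorylation in three min.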

SH2 binding enrichment [1] | SH2 binding enrichment [2] | SH2 binding enrichment [3] | Sequence | phosphorylation enrichment [4] | phosphorylation enrichment [5] | phosphorylation enrichment [6] | phosphorylation enrichment [7] | phosphorylation enrichment [8] | phosphorylation enrichment [9] | phosphorylation enrichment [10] | phosphorylation enrichment [11] | phosphorylation enrichment [12] | phosphorylation enrichment [13] | phosphorylation enrichment [14] | phosphorylation enrichment [15] | phosphorylation enrichment [16]
0.698 | 0.474 | 0.601 | GNLQENLTRHV [TGFBR2_Y336_Y336N] | 0.422 | 0.368 | 0.374 | 0.418 | 0.478 | 0.558 | 0.461 | 0.358 | 0.366 | 0.337 | 0.432 | 0.447 | 0.427
0.75 | 0.379 | 0.636 | PSSNLYFRCLT [CNGA3_Y168_W171C_YF] | 0.809 | 0.808 | 0.88 | 1.03 | 0.828 | 1.63 | 1.5 | 1.19 | 0.694 | 0.48 | 0.967 | 1.66 | 0.707
2.05 | 1.32 | 1.91 | KKGIVYVFNGR [ITGAV_Y404_I405V] | 0.449 | 0.48 | 0.486 | 0.538 | 0.458 | 0.677 | 0.756 | 0.527 | 0.441 | 0.395 | 0.443 | 0.73 | 0.477
0.836 | 0.611 | 0.835 | IRKDLYSNNVL [ACTC1_Y296_A297S] | 0.476 | 0.518 | 0.419 | 0.422 | 0.497 | 0.553 | 0.506 | 0.425 | 0.414 | 0.322 | 0.444 | 0.471 | 0.415
0.96 | 0.969 | 0.962 | HEKRAYICAHP [ACAD9_Y611_L606H] | 0.434 | 0.439 | 0.49 | 0.548 | 0.454 | 0.77 | 0.742 | 0.543 | 0.593 | 0.448 | 0.59 | 1.3 | 0.447
0.948 | 0.503 | 0.694 | KLQKYYRQNPD [EHHADH_Y683] | 0.464 | 0.371 | 0.448 | 0.419 | 0.765 | 0.591 | 0.565 | 0.413 | 0.417 | 0.42 | 0.482 | 0.474 | 0.348
0.734 | 0.418 | 0.656 | TDTQLYGRFGS [ITGA2B_Y384_G380D] | 0.583 | 0.98 | 9.16 | 0.464 | 0.608 | 0.888 | 0.783 | 0.487 | 0.479 | 7.4 | 0.769 | 0.645 | 11.1
0.985 | 1.09 | 0.993 | IVRSLYEDQED [VHL_Y185_L188Q] | 0.621 | 0.482 | 0.581 | 0.742 | 0.67 | 1.36 | 1.39 | 0.67 | 0.523 | 0.59 | 0.826 | 1.3 | 0.477
1.4 | 2.44 | 1.91 | CSTIHYNFMCN [TP53_Y234_T230S_YF] | 0.54 | 0.385 | 0.375 | 0.418 | 0.369 | 0.693 | 1.2 | 0.458 | 0.423 | 0.468 | 0.461 | 0.573 | 0.476
0.979 | 0.503 | 0.916 | DRTVHYVDEKG [IFT140_Y216_G212R] | 0.436 | 0.393 | 0.441 | 0.515 | 0.431 | 0.742 | 0.666 | 0.413 | 0.368 | 0.341 | 0.46 | 0.597 | 0.429
1.25 | 0.633 | 0.779 | DFTSRYLNASD [PKHD1_Y828] | 0.407 | 0.511 | 0.47 | 0.572 | 0.46 | 0.893 | 0.797 | 0.469 | 0.45 | 0.43 | 0.512 | 0.616 | 0.468
0.504 | 0.434 | 0.459 | RRKRAYVEIEF [MAK16_Y282_Q277R_YF] | 0.658 | 0.759 | 0.505 | 0.871 | 0.582 | 0.828 | 0.665 | 0.563 | 0.551 | 0.542 | 0.58 | 0.593 | 0.58
0.763 | 0.604 | 0.424 | TVDASYYGGRG [ANTXR2_Y380] | 0.503 | 0.495 | 1.14 | 0.561 | 0.411 | 0.66 | 0.512 | 0.546 | 0.559 | 0.642 | 0.576 | 0.609 | 0.73
0.764 | 0.554 | 0.696 | NDQANYSLNTD [ADA_Y290] | 0.68 | 0.561 | 0.465 | 0.749 | 0.623 | 0.982 | 0.966 | 0.566 | 0.498 | 0.535 | 0.814 | 0.981 | 0.585
0.808 | 0.502 | 0.713 | SQQTFCRVSNM [ABCD1_Y181_Y181C_YF] | 0.515 | 0.412 | 0.5 | 0.615 | 0.461 | 0.679 | 0.636 | 0.446 | 0.408 | 0.411 | 0.567 | 0.554 | 0.453
0.864 | 0.735 | 0.812 | MVIPNYSSWTE [UROC1_Y185_R188W] | 13.5 | 3.74 | 0.862 | 1.07 | 11.1 | 1.23 | 1.31 | 1.11 | 1.78 | 0.719 | 0.999 | 1.16 | 0.689
1.24 | 0.532 | 0.952 | LIQRNYKLTAQ [ALPK2_Y1975_A1978T] | 0.604 | 0.567 | 0.507 | 0.511 | 0.479 | 1.12 | 0.86 | 0.465 | 0.393 | 0.706 | 1.2 | 1.24 | 0.462

SH2 binding enrichment [1] | SH2 binding enrichment [2] | SH2 binding enrichment [3] | Sequence | phosphorylation enrichment [4] | phosphorylation enrichment [5] | phosphorylation enrichment [6] | phosphorylation enrichment [7] | phosphorylation enrichment [8] | phosphorylation enrichment [9] | phosphorylation enrichment [10] | phosphorylation enrichment [11] | phosphorylation enrichment [12] | phosphorylation enrichment [13] | phosphorylation enrichment [14] | phosphorylation enrichment [15] | phosphorylation enrichment [16]
0.716 | 0.53 | 0.557 | SGDITYGQFAQ [PLCG1_Y210] | 0.4 | 0.362 | 4.63 | 0.422 | 0.47 | 0.632 | 0.596 | 0.426 | 0.387 | 5.78 | 0.495 | 0.796 | 8.52
0.837 | 0.439 | 0.609 | MSPPGYKLVNG [GJA1_Y286_T290N] | 0.38 | 0.412 | 0.448 | 0.438 | 0.403 | 0.561 | 0.429 | 0.58 | 0.315 | 0.461 | 0.52 | 0.564 | 0.412
0.983 | 0.494 | 0.871 | LRLFSYSTTIR [CYP7B1_Y365_S363F] | 0.45 | 0.35 | 0.57 | 0.773 | 0.654 | 1.09 | 0.815 | 0.357 | 0.457 | 0.358 | 0.663 | 1 | 0.421
0.784 | 0.572 | 0.495 | GLGVTYEQALA [MAP2_Y996] | 0.471 | 0.372 | 0.439 | 0.477 | 0.48 | 0.686 | 0.712 | 0.437 | 0.423 | 0.503 | 1.18 | 0.724 | 0.464
1 | 0.553 | 0.783 | KDHPDYKFPPR [SOX10_Y171_Q174P_YF] | 0.444 | 0.393 | 0.382 | 0.762 | 0.387 | 0.685 | 0.883 | 0.656 | 0.376 | 0.434 | 0.52 | 0.564 | 0.415
0.788 | 0.588 | 0.76 | FVPSNYVAEDR [FRK_Y104_I100V_YF] | 0.625 | 0.38 | 0.431 | 0.662 | 0.527 | 0.827 | 0.782 | 0.447 | 0.409 | 0.35 | 0.625 | 0.642 | 0.439
0.823 | 0.642 | 0.465 | FKDVTYLKEEK [UBE3A_Y127_T129K] | 0.447 | 0.38 | 0.442 | 0.728 | 0.466 | 1.28 | 0.891 | 0.481 | 0.49 | 0.523 | 0.809 | 0.986 | 0.514
0.708 | 0.633 | 0.454 | VEKEKYVSFIS [JMJD1C_Y596_M591V_YF] | 0.52 | 0.408 | 0.577 | 0.793 | 0.467 | 0.796 | 0.762 | 0.493 | 0.36 | 0.396 | 0.521 | 0.755 | 0.477
0.713 | 0.382 | 0.641 | DGSALYTGSAL [COL6A3_Y524] | 0.439 | 0.404 | 0.858 | 0.474 | 0.418 | 0.638 | 0.612 | 0.313 | 0.643 | 0.536 | 0.459 | 0.591 | 0.84
1.62 | 1.41 | 1.48 | NKKHHYRELPV [ERN2_Y860] | 0.773 | 0.795 | 1.01 | 2.45 | 0.855 | 1.97 | 1.04 | 0.826 | 1.22 | 0.996 | 2.31 | 2.67 | 0.669
1.03 | 36.8 | 0.87 | VVHSSYDEIEG [SEC24A_Y263] | 0.549 | 0.429 | 0.475 | 0.648 | 0.51 | 1.12 | 1.04 | 0.493 | 0.492 | 0.442 | 0.713 | 0.892 | 0.498
0.939 | 0.556 | 0.7 | SVTCPYSPALN [TP53_Y126_T125P] | 0.573 | 0.437 | 0.616 | 0.679 | 0.572 | 1.29 | 0.961 | 0.505 | 0.656 | 2.15 | 1.21 | 1.17 | 0.481
0.874 | 2.46 | 0.908 | YSPCDYQPCLA [TNS1_Y798_Y796C] | 9.31 | 3.24 | 0.838 | 3.25 | 13.9 | 0.966 | 2.78 | 4.87 | 2.44 | 1.62 | 0.827 | 1.06 | 1.14
0.674 | 0.494 | 0.515 | EFFDGYWEFSV [ITGA2B_Y265_G267E_YF] | 0.577 | 0.631 | 2.29 | 6.69 | 0.709 | 1.55 | 1.98 | 8.09 | 0.515 | 5.58 | 1.19 | 3.11 | 3.4
1.04 | 0.572 | 0.77 | VFFDLYGGEKF [PTPN11_Y66_D61V_YF] | 0.596 | 0.517 | 2.08 | 0.598 | 0.803 | 1.11 | 1.03 | 0.443 | 0.509 | 2.04 | 0.914 | 0.835 | 1.42
0.929 | 0.543 | 1.03 | QFLMMYVWSAS [ABCD1_Y337_K336M] | 0.931 | 0.541 | 0.912 | 1.22 | 0.873 | 1.58 | 1.53 | 0.426 | 0.807 | 0.779 | 1.27 | 1.46 | 0.465
